# Data from publication PMC4917968.
# Experiments:
# [1] = target: Full-length mouse eRF1 (mouse) (UniProt Q8BWY3); experiment: ITC; 22 °C, MicroCal VP-ITC; 20 mM HEPES pH 7.5, 150 mM NaCl, 5 mM TCEP; injectant protein 220-300 μM into a cell with 13-20 μM protein; single-site model
# [2] = target: Full-length mouse eRF1 (mouse) (UniProt Q8BWY3); experiment: ITC; competition: RNase H (WT or mutant) titrated to the preformed eRF1/eRF3 complex; apparent Kd; 22 °C, 20 mM HEPES pH 7.5, 150 mM NaCl, 5 mM TCEP; single-site model
Substance,Kd [1] [µM],Kd [2] [µM],fold reduction of binding against WT RNase H [1] [fold]
Isolated RNase H domain of MoMLV RT (aa 500–671) (domain or fragment),4.18,5.6,–
RNase H mutant F588A (isolated RNase H domain of MoMLV RT) (domain or fragment),–,–,10
